Target: PHOX2B-20A (UniProt Q99453 98-314)
Experiment: NMR

Sequence of PHOX2B-20A (Q99453 98-314): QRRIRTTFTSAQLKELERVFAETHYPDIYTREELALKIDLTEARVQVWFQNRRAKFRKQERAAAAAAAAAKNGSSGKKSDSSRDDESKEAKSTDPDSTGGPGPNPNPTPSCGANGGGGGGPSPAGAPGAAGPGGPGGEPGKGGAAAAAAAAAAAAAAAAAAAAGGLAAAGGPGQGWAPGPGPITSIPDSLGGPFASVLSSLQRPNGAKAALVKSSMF

B1: ATTA2 (dsDNA)
DNA 1: TAGTGTGATTGAATTAAAGGGCAGG
DNA 2: CCTGCCCTTTAATTCAATCACACTA
  binding result: binds

Reference: PMC11168103
